Results reported in paper PMC9221443, “Peptidomimetics Based on C-Terminus of Blm10 Stimulate Human 20S Proteasome Activity and Promote Degradation of Proteins” (Biomolecules, 2022).

How the values were obtained:
Test in all cases: MST; NT-647-labelled protein kept constant (250 nM native and oxidized α-synuclein, 125 nM native enolase, 25 nM oxidized enolase), unlabelled h20S titrated in 16 dilutions from 1965 to 0.06 nM; 60 min (enolase) or 30 min (α-synuclein) at 22 °C; 20 mM Tris-HCl pH 7.2, 10% glycerol, 0.5 mM DTT, 0.5 mM NaN3, 0.125 mM EDTA, 100 mM NaCl; Hill fit, three independent experiments
[1] = biological target: oxidized human enolase 2 (human) (UniProt P09104)
[2] = biological target: oxidized α-synuclein (UniProt P37840)
[3] = biological target: α-synuclein (UniProt P37840)

For “human 20S proteasome (from UniProt P25786 4-241; P28066 8-241; P28072 35-239; Q99436 44-277; P28074 60-263) (complex)”, the EC50 [1] was 87.8 nM, the EC50 [2] was 67.6 nM and the EC50 [3] was 32.3 nM.
